Measurements: article PMC9366199, “Bivalent binding of p14ARF to MDM2 RING and acidic domains inhibits E3 ligase function” (Life Science Alliance, 2022)

Molecular target: T1, UBE2D2^(S22R C85K)–Ub (UniProt P62837 2-147; P0CG48 1-76, S22R | C85K)
T1 construct: UBE2D2 with S22R and C85K, conjugated to ubiquitin; ubiquitin (Ub), conjugated to UBE2D2; also called UBE2D2–Ub; UBE2D2–Ub conjugate; source: purified as described previously (Buetow et al, 2015)
Assay: SPR; Biacore T200, 25°C; GST-MDM2 variants captured on anti-GST nanobodies on CM-5 chips (about 500 RU), GST as control; UBE2D2–Ub as analyte, seven twofold dilutions from 100 μM; 25 mM Tris-HCl pH 7.6, 300 mM NaCl, 0.5 mM TCEP, 0.005% Tween-20; steady-state affinity
Conditions: both partners purified

B1: GST-tagged MDM2^419-C containing the RING domain (domain or fragment, UniProt Q00987 419-491, looked up)
chain: TQDKEESVESSLPLNAIEPCVICQGRPKNGCIVHGKTGHLMACFTCAKKLKKRNKPCPVCRQPIQMIVLTYFP
notes: MDM2, residues 419 to the C-terminus (RING domain); TEV site between GST and MDM2 (modified pGEX-4T-1); the oligomeric state of the GST fusion was not measured here; also called GST-MDM2^RING; MDM2^RING; source: E. coli BL21-DE3; co-expressed with His-GFP-MDM2^220-334, in lysate (pull-down); not shown: GST, N-terminal, kept
Q: Which Kd does the source give for B1 here?
A: 14.5 ± 1.4 µM
